Format in all cases: cell-based
Assay [1] addresses T1, αvβ3 integrin (Homo sapiens, UniProt P05106+P06756).
T1 construct: endogenous in cells; host or cells: MDA-MB-435 (A4) and MDA-MB-231 (A5) human mammary carcinoma cells
As to the kind of experiment: WOW1 Fab binding (activated αvβ3 integrin), MDA-MB-435. The conditions noted are these: cells adherent to mAb B-B4; 20 μM GST-mS1ED. As for the experimental part: (§1) FIGS. 2A-C—Sdc-1 adhesion-mediated cell spreading correlates with αvβ3 integrin. expression and activity. (FIG. 2A) FACS analysis of αvβ3 integrin expression (mAb LM609) in human mammary carcinoma cells against an IgG isotype control. (FIG. 2B) Depicted on split panels are phalloidin-stained MDA-MB-435 (upper half) and MCF-7 (lower half) cells 2 h after plating on wells coated with mAb B-B4 in plating medium alone or medium containing either 30 μg/mL mAb LM609, 1 μg/mL mAb 13 or 20 μM GST-mS1ED. Bar, 50 μm. (FIG. 2C) Untreated MDA-MB-435, MDA-MB-231 and MCF-7 cells (columns 1 and 4) and cells pretreated in suspension with 1 μg/mL mAb 13 (columns 2 and 3) were seeded on wells coated with either mAb B-B4 or COL I in plating medium alone (columns 1, 2 and 4) or medium containing 20 μM GST-mS1ED (column 3). Cells were incubated at 37° C. for 2 h, fixed, permeabilized and stained with WOW1 and an Alexa 488-conjugated secondary. Panel insets are corresponding phase contrast pictures. Bar, 20 μm.
(§2) To verify that cell spreading induced upon Sdc-1 ligation correlates with αvβ3activation, the inventors relied upon binding of the ligand-mimetic WOW1 mouse Fab—a probe that detects activated, but unligated αvβ3 integrin. MDA-MB-435 cells adherent to mAb B-B4 display strong binding of WOW1 both centrally and within puncta at the spreading margin of cells (FIG. 2C). […]

In assay [2] the test system is Human aortic endothelial cells (HAEC). In words: HAEC spreading on VN. The conditions noted are these: 1-10 uM GST-mS1ED. The protocol:
FIG. 13—Human aortic endothelial cells rely on αvβ3 and αvβ5 integrins for spreading on VN. Human aortic endothelial cells (HAECs) were suspended and replated on 10 μg/ml VN in the presence of integrin inhibitory antibodies mAb 13 (specific for β1-containing integrins; this will inhibit the αvβ1 integrin), LM609 (specific for the αvβ3 integrin) and P1F6 (specific for the αvβ5 integrin), or combinations of these antibodies. After 2 hr, the cells were fixed, stained with Alexa488-conjugated phalloidin to aid in visualization, and observed by fluorescence microscopy to document integrin-dependent spreading. Inhibition of spreading requires simultaneous inhibition of both the αvβ3 and αvβ5 integrins.
FIG. 15—αvβ3 and αvβ5 integrin-mediated spreading of human aortic endothelial cells on VN is disrupted by recombinant syndecan-1 ectodomain fusion protein. HAECs are plated on VN in the presence of no competitor, 1-10 uM GST-mS1ED (recombinant mouse syndecan-1 ectodomain expressed as a fusion protein with GST) or GST alone.
FIG. 16—Inhibition of HAEC spreading on VN by silencing of Sdc-1. HAECs were transfected with a range of concentrations of siRNA specific for human Sdc1 (hS1), which achieves 80-88% silencing at 100-200 nM, as shown by flow cytometry using human Sdc-1 mAb B-B4. The cells treated with 200 nM siRNA were also plated on VN for 2 hr and display a 60% reduction in cell spreading. […]

Assay [3] has as its system MCF-7 human carcinoma cells. In words: Cell spreading assay, MCF-7. The following applies: 10 μg/mL VN, 2 h; LM609 30 μg/mL; mAb 13 25 μg/mL; GST-mS1ED 20 μM. The protocol: FIG. 3—MDA-MB-435, but not MCF-7, human carcinoma cells display functional coupling of Sdc-1 and αvβ3 integrins on VN. Depicted are phalloidin-stained cells 2 h after plating on wells coated with 10 μg/mL VN (upper half) or FN (lower half) in plating medium alone or medium containing either 30 μg/mL mAb LM609, 25 μg/mL mAb 13, 20 μM GST-mS1ED or -mS4ED. Bar, 50 μm.
MDA-MB-435, but not MCF-7, human carcinoma cells display functional coupling of Sdc-1 and αvβ3 integrin on VN. To test whether activation of αvβ3 integrin activation on matrix is also functionally coupled to Sdc-1, MDA-MB-435 and MCF-7 cells were plated on either VN or FN (FIG. 3). MDA-MB-435 cells spread on VN and require αvβ3 integrins for this activity as spreading is blocked by mAb LM609. Although the MCF-7 cells spread on VN, this spreading is unaffected by LM609; these cells rely instead on αvβ1 integrins as spreading is blocked by either mAb 13 (FIG. 3) or αv-specific mAb M9 (unpublished data; de Vries et al., 1986). Neither cell type utilizes αvβ3 to respond to FN, rather both utilize […] that are blocked by either mAb 13 (FIG. 3) or mAb 16 (unpublished data).
To test whether GST-mS1ED specifically blocks αvβ3 integrin-dependent spreading or acts as a general inhibitor to all αv integrin heterodimers, MDA-MB-435 and MCF-7 cells were plated on VN in the presence of 20 μM GST-mS1ED. […]

The target in assay [4] is T1, αvβ3 integrin. As to the kind of experiment: WOW1 Fab binding (activated αvβ3 integrin), MDA-MB-231. The following applies: cells adherent to mAb B-B4, pre-treated with 1 μg/mL mAb 13; GST-mS1ED 20 μM. The protocol: as §1, §2

Data on 1 molecule can be found in patent publication US20060134122A1, “Peptides of syndecan-1 for inhibition of cancer” (priority 2004, published 2006).

T1 sequence (P06756 31-889 limits assumed): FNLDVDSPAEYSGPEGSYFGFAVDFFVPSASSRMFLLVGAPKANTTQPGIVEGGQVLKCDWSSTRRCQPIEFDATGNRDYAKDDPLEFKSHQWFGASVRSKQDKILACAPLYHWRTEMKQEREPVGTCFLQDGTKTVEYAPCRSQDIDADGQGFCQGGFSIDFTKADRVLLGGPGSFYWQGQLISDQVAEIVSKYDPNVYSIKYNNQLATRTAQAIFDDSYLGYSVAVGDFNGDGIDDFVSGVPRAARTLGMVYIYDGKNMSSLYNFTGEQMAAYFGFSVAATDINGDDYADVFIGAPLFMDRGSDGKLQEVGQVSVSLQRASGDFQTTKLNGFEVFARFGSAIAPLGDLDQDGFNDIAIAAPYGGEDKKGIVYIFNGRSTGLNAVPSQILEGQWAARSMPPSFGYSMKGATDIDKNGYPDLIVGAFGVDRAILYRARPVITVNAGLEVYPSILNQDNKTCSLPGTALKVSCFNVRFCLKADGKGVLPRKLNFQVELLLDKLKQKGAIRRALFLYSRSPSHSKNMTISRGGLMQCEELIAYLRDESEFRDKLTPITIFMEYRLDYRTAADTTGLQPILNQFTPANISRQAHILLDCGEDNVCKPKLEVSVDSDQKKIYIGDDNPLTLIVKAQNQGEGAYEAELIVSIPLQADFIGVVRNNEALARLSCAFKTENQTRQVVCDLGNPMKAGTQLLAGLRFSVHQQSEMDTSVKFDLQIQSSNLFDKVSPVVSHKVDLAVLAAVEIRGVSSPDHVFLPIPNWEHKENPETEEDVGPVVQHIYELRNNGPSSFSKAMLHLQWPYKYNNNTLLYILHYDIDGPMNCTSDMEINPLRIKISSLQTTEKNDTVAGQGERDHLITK
T1 sequence (P06756 891-1048 limits assumed): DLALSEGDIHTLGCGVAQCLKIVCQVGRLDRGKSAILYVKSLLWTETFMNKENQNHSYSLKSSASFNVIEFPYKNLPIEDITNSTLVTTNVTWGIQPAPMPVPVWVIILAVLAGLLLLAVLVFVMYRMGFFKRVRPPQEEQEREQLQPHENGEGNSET
T1 sequence (P05106 27-788): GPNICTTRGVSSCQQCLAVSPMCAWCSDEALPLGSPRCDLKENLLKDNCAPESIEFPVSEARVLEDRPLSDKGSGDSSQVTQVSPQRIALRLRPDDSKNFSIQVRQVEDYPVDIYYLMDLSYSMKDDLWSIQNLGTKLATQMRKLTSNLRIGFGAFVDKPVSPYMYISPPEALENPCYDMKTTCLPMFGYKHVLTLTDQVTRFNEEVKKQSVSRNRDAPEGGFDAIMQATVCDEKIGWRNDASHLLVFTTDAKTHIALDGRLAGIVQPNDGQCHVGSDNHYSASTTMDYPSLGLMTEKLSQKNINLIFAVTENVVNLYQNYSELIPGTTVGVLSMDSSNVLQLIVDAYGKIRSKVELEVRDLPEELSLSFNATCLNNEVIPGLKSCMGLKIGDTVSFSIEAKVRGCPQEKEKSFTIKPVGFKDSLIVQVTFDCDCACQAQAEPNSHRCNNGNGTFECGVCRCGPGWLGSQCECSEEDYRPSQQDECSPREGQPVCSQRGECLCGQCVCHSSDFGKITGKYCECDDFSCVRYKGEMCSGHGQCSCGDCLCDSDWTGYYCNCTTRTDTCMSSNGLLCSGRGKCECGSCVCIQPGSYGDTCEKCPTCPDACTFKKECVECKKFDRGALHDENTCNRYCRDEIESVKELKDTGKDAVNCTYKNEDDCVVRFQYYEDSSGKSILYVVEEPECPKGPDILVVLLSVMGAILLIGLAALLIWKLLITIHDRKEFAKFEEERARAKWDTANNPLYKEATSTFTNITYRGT

B1: GST-mS1ED: recombinant mouse syndecan-1 ectodomain expressed as a fusion protein with GST (protein)
chain: QIVAVNVPPEDQDGSGDDSDNFSGSGTGALPDTLSRQTPSTWKDVWLLTATPTAPEPTSSNTETAFTSVLPAGEKPEEGEPVLHVEAEPGFTARDKEKEVTTRPRETVQLPITQRASTVRVTTAQAAVTSHPHGGMQPGLHETSAPTAPGQPDHQPPRVEGGGTSVIKEVVEDGTANQLPAGEGSGEQDFTFETSGENTAVAAVEPGLRNQPPVDEGATGASQSLLDRKEVLG
modifications: left off: a dimerising Fc or GST
notes: recombinant mouse syndecan-1 ectodomain expressed as a fusion protein with GST
As for B1, the “WOW1 binding (αvβ3 activation)” value with αvβ3 integrin [1] is given as “WOW1 fails to bind”; with αvβ3 integrin [4], “WOW1 staining is also lost”. Also, in assay [2], the “αvβ3 and αvβ5 integrin-mediated spreading on VN” value is on record as “disrupted”. The “cell spreading on VN” value in assay [3] is listed as “Only the MDA-MB-435 cells fail to spread”.
